A short description of the data set: soluble on expression in E. coli; label from the status in PepcDB or PDB records.
As to “MGRAAEVPGPEPGQQEQLVFGSGDAVELSCPPPGGGPMGPTVWVKDGTGLVPSERVLVGPQRLQVLNASHEDSGAYSCRQRLTQRVLCHFSVRVTDAPSSGDDEDGEDEAEDTGVDTGAPYWTRPERMDKKLLAVPAANTVRFRCPAAGNPTPSISWLKNGREFRGEHRIGGIKLRHQQWSLVMESVVPSDRGNYTCVVENKFGSIRQTYTLDVLERSPHRPILQAGLPANQTAVLGSDVEFHCKVYSDAQPHIQWLKHVEVNGSKVGPDGTPYVTVLKTAGANTTDKELEVLSLHNVTFEDAGEYTCLAGNSIGFSHHSAWLVVLPAEEELVE”, the “soluble on expression in E. coli” value was “soluble”.
Under “MKHTTKQMEILSDIRTLLHKKEEHLKRQNEKFLRETGVSSMSLSELHVIECIGKNGLMNVTAITTEMGMTKGAISKICTKLFQKQFVEKLQMLDNQKEIFFSLTESGNEIYKAHEKLHKQAEEKWLLLLDGYTKEEQDFIQRFIKDVSGHLEI” stands “not soluble”.
Under “MEAASIAVPGAGASLRAQALDALMTPAWADKLAAVAAIDAGAPVGAQQDLAEPAGLLGRPPAPQLVPPSQVRQRSVQSPEGRAALLHALAHIEFNAINLALDAVWRYGGLPDAYYLDWLKVAREEAYHFDLLNRHLSGLGHAYGDFPAHNGLWEMAEKTRADLLARLALVPRTLEARGLDASPLIRDKLAAAGDADGAAILEIILRDEIGHVAIGNHWYKALCAQRGLDPVAQYAQLASRYGAPRLRGPFNLEARRAAGFDEDELRALLQALEHHHHHH” stands “not soluble”; under “MGSDKIHHHHHHMNVEKLKKMKGKEKIVMVTAYDAPSARIARDAGIDVILVGDSLGNNVLGYENTIPVTMEEMLIHVAAVKRGAPDAFIVADMPFLSYQTSVEKAVENAGKFLKVGANAVKIEGGEEFGELVQKLVESGIPVMGHIGLTPQFVNRFGGYRVQGKTEKNREYLLRSARELEKRGAFAIVLELVVEEVAKEITESVSIPTIGIGSGRFCDGQVLVWHDLLGLNPDFAPRFSKKYANLYEVILKALQEFRREVKKGLFPTEEHSFTDKSKGGVSS”, “not soluble”; under “METYDVLVIGGGPGGSTAARYAAKYGLRTLMIEKRPEIGSPVRCGEGLSKGILNEADIKPDKSFIANEVKGARIYGPSEKRPIILQSEKAGNEVGFVLERDKFDKHLAALAAKAGADVWVKSPALGVIKEDGKVAGAKIRHENNVVEVRAKMVIAADGFESEFGRWAGLKSVILARNDIISALQYRMINIDVDPDYTDFYLGSIAPGGYIWVFPKGEGMANVGIGSSINFIHNRLELKNYLDRFIENHPGLKKGQDIQLVTGGVSVSKVKMPITMPGLMLVGDAARLIDPITGGGIANAIVSGMYAAQVSKEAIESNDYSPQMMGKYEKLVKDRFERKHLRNWVAKEKLAQLSDETLDKLVDIVSEQVLTTISVEAILKAIAEKYPEVVKELEDLILEHHHHHH”, “soluble”.
Turning to “MRPMTIDIDELAFALDTPGIDHYLDLYSGKVLLISAEAPDPELDALLENEPERLLLIDPLSTTQSLGLMQDFLREVEEPHAYATLANALQSRKPFKAFKHSLMEYPELLQDWYRYQNERLREWALDWLEDNDIQPAARQSPTSLLPPPGKPFA”, the “soluble on expression in E. coli” value was “not soluble”.
Consider “MASTSTGLPPNWTIRVSRSHNKEYFLNQSTNESSWDPPYGTDKEVLNAYIAKFKNNGYKPLVNEDGQVRVSHLLIKNNQSRKPKSWKSPDGISRTRDESIQILKKHLERILSGEVKLSELANTESDCSSHDRGGDLGFFSKGQMQPPFEEAAFNLHVGEVSNIIETNSGVHILQRTG”, for which the “soluble on expression in E. coli” value is listed as “soluble”.
Consider “MVTQNKKILIITGSFGNGHMQVTQSIVNQLNEMNLNHLSVIQHDLFMEAHPIMTSICKKWYINSFKYFRNTYKRFYYSRPNELDKCFYKYYGLNKLINLLIKEKPDLILLTFPTPVMSVLTEQFNINIPIATVMTDYRMHKNWITPYSQRYYVATKDTKDDFIEAGVPASYIKVTGIPIADKFELEHHHHHH”, for which the “soluble on expression in E. coli” value is on record as “not soluble”.
Under “MVTNRVVFLTGAASGIGYEMGNTFAKEGAKVVITDRLEERAKEAAEQLQKEGFQAIGLKCDVTSEEEIEASISQTVNHFGSLDILINNAGMQHVSPIEDFPTEKFELLIKIMQIAPFIAIKHAFPIMKKQKYGRIINVASINGLVGFAGKAAYNSAKHGVIGLTKVAALEGATHGITVNALCPGYVDTPLVRNQLQDLATTRNVPLENVLEDVIYPLVPQKRLLQVQEIADYAMFLASEKAKGITGQAVVIDGGYTAQ” stands “not soluble”; under “TGAITVGNKNNDKLTLWTTPAPSPNCRLNAEKDAKLTLVLTKCGSQILATVSVLAVKGSLAPISGTVQSAHLIIRFDENGVLLNNSFLDPEYWNFRNGDLTEGTAYTNAVGFMPNLSAYPKSHGKTAKSNIVSQVYLNGDKTKPVTLTITLNGTQETGDTTPSAYSMSFSWDWSGHNYINEIFATSSYTFSYIAQE”, “soluble”; under “MSMDNHIVIMAGGIGSRFWPMSTPECPKQFIDVMGCGRTLIQLTADRFDGVCPRENVWVVTSEKYIDIVREQLPEIPESNILAEPCARNTAPCIAYACWKIKKKHPNANVVVTPSDALVINTGEFRRVVEKALRFTDNSSAIVTLGIKPTRPETGYGYIAAGDQIMTDKEIFTVDAFKEKPDRETADRYLAEGNYFWNAGIFVWNVRTITSVMRVYAPGIAQIFDRIFPDFYTEKENETIKKLFPTCEAISIDYAVMEKAQEIYVLPASFGWSDLGTWGALRGLLPQDKSGNATVGADVRLYESKNCIVHTSEEKRVVIQGLDGYIIAEKDNTLLICKLDEEQRIKEFSK”, “not soluble”.
In the case of “MAAIKINKLLTIESNSSHTLLESMEQAGLEPEYNCRDGHCGACRCQLISGEVEYVGFAMAYTQGNEILPCICRAKTALEIEQVTYQLKAKRA”, the “soluble on expression in E. coli” value was “not soluble”.
For the sequence “DAYIGVLIDDLVTKGTNEPYRLLTSRAEYRLLLRHDNADLRLTDMGYELGMISEERYARFNEKRQQIDAEIKRLSDIRIKPNEHTQAIIEQHGGSRLKDGILAIDLLRRPEMTYDIILEILEEEHQLNADVEEQVEIQTKYEGYINKSLQQVEKVKRMEEKKIPEDLDYSKIDSLATEAREKLSEVKPLNIAQASRISGVNPADISILLIYLEQG”, the “soluble on expression in E. coli” value is “not soluble”.
On to “MFENESLSFEEQTIIQAAERYVQQELANEASGHDWWHIYRVTQLAKTIAEKEQANLFLCILTALLHDIGDEKFNESEEAGLLKVQQWLEANNVSTEQTNHILSIIANMSFKGGNTGKTVTTLEGKVVQDADRLDAIGAIGIARVMAYSGNKGRLIHDPHKQPREQLTQEEYRNGEDTAIMHFYEKLLKLKEQMNTNYGRLLAEKRHQFMELYLEEFYQEWDGHRLEHHHHHH”, for which the “soluble on expression in E. coli” value is “soluble”.
Consider “MGSDKIHHHHHHMKIGILTFANVPNFGANLQALSTISYLQNHGYNPILIKWEPEDFEARFTSIKTQKQPQEHFHFVEKYLPQTKICRNDDDICQVIKDEKIEGIIIGSDAVLQCSSFWGRLDFPTKTVVRVNKTTSEREYPNAFWGTFYDKLGSKIPMVIMSASSQNAKYRLIARSVKHKMSNNLSHFEYISVRDIWTRDMITYITKGAIIPNITPDPVFAFNYNCAKFIPSKEDILLKYHLPENYVLVSMKCRMLDNMLWMDKLKSEMKKLYLECVALPMPTGIEFKHNFDFSITTPLPPLDWYALIKYAKGYIGENMHPIVVALHNAVPCFCFDTYGVLKYARCVCVEESSKIYDIMSRFSLLDNRINAYSRFWKCPPVDIVINRILHFDVIACQKTALNYYNNYEQMMSSILEVFKSK”, for which the “soluble on expression in E. coli” value is given as “not soluble”.
“MGSDKIHHHHHHMMITSKSLNRKSIPAPLPSIAEDVLEGLSRTPKSLPPKLLYDATGSDLFEQITCLPEYYPTRTEAGILTVHAEEICSHLRRNVSVSELGAGTATKTRILLRSLVRQQFGVNYFPLDVSDAALQLAKDEVESELSRVKVHPQLGDFDNLTFLEHQSPPRLVLYIGSSIGNLENDAAIALLQNIARNLSTGDKLLLGADLVKDINVMHAAYNDEAGVTALFNKNLLVRINRELSGHFDPESFCHISFWNEAESRIELHLESACRQAVRIDTLDMTFHFDRGERIHTENSYKYTVEHLENLLRSGGFQVEHTWTDPDSWFAVSLGVIT”: the “soluble on expression in E. coli” value is reported as “not soluble”.
Consider “MPSRKFADGEVVRGRWPGSSLYYEVEILSHDSTSQLYTVKYKDGTELELKENDIK”, for which the “soluble on expression in E. coli” value is listed as “soluble”.
Next, “MLAARGFFKSTRISNRFFAKKSVKNLTNDDVDVLTNPSDEYVDSFMKYHGNGRAVFKREDLAQWRDSFPDYKFKVISLKGAPRVIATAHLCTFRPIDPSINKSIMFMGFGWIDPGFRSPGTAKLQNDMCRVEMDREDDNIVSQINQPAKNFWHKLSKRKEFLDLGHKAGDVGYKTFYSAHDVVLPENLDLSGITVKNAREVPKRDIINYDQTIHPYHREKYIISHMYDRDGFGKVAYDEEGNVIGIGQAVIYENRKDCNLGPIYAENTRVAQAMFAEILKDIKASEKTVVSFEVRSGQLNKDSFCWLTPFLTHKPTRSHVCNLVYTDCVPENIDFSKVYSPTHAQLFMV”: “not soluble”; “MGSDKIHHHHHHMPKILKFNEEARRALERGVDKVANAVKVTLGPKGRNVVIEKSWGSPTITNDGVSIAKEIELEDKFENLGAQLVKEVASKTNDVAGDGTTTATVLAQAMIKEGLKNVAAGANPILLKRGIDKAVEKAVEEIKKVSKKLSGREDIAHVAAISANSAEIGELIAEAMDKVGEDGVITVEDSKTLETYVEFTEGMQFDRGYISPYFVTDAEKMEVVLKEPFILITDRKLSAVKPLIPILEKVAQTGKPLLVIAEDVEGEVLTTLVLNKLKGTLQSCAVKAPGFGERRKAMLQDIAILTGGQVASEELGINLEDLTLEDLGRADLVRVKKDETIIIGGKGDPEAIKKRIAQIKAQIEETTSEYEKETLQERMAKLAGGVAVIKVGAATETELKEKKHRIEDALSATRAAVEEGIVPGGGVTLLRARKAVEKVIEELEGDEKIGAQIVYKALSAPIKQIAENAGYDGAVIIEKILSNDDPAYGFDALRGEYCNMFERGIIDPAKVTRSALQNAASIAGMLLTTEVLIVEKPEEKKETPSMPEEF”: “not soluble”; “MDENTRNLIKKVERSVFAGNRAAAAKELGEIGDFDAVPVLLKALEDSSSKVKAAASEALGEINDPDAVPCLMKMLDYPESYVKKAAIIALGKIGTQEAVSGIVKGFRDPDKLIRKESVKALMRIGSPEAVSGLTATFTCPDSPLKRISITALGKINTYEAACGLVKALEDPDNRVRQQAVETLGKRGISDVLEELMELLKDSRQPVQEAASEALCKIIGGSESVPVLVKALGASDRKVRKASIEALGKAGNSEAVSALLKELDDDDWYLRSRAADVLADIASPEAALGLVKALDLHDAPVRKLIVSALGKIGSPETIEGLVKALDDPDNSIREAATLGLGKTGKVEAVPGLLRALHDPKNTVQEAAATSLGDMKAREAVPEFLRILEDPDSLIHKSVIFSLEKIGTPEAVAGLSRALNNPDAMVRKAAAKSLEKIKKSGLPLEKAKNIEISGFNISE”: “not soluble”.
“MHHHHHHSSGRENLYFQGGSLLELQKKYHLKGAIGQGSYGVVRVAIENQTRAIRAIKIMNKNKIRQINPKDVERIKTEVRLMKKLHHPNIARLYEVYEDEQYICLVMELCHGGHLLDKLNVFIDDSTGKCAMDVVKTQICPCPECNEEAINGSIHGFRESLDFVQREKLISNIMRQIFSALHYLHNQGICHRDIKPENFLFSTNKSFEIKLVDFGLSKEFYKLNNGEYYGMTTKAGTPYFVAPEVLNTTNESYGPKCDAWSAGVLLHLLLMGAVPFPGVNDADTISQVLNKKLCFENPNYNVLSPLARDLLSNLLNRNVDERFDAMRALQHPWISQFSDKIYKMS”: the “soluble on expression in E. coli” value is “soluble”.

The record behind these values is the DeepSol protein solubility set.
